Assay results as given in IntAct's records for PubMed 24630722.

B1: Interferon-inducible protein AIM2 (Homo sapiens), O14862 (parent)
chain: MESKYKEILLLTGLDNITDEELDRFKFFLSDEFNIATGKLHTANRIQVATLMIQNAGAVSAVMKTIRIFQKLNYMLLAKRLQEEKEKVDKQYKSVTKPKPLSQAEMSPAASAAIRNDVAKQRAAPKVSPHVKPEQKQMVAQQESIREGFQKRCLPVMVLKAKKPFTFETQEGKQEMFHATVATEKEFFFVKVFNTLLKDKFIPKRIIIIARYYRHSGFLEVNSASRVLDAESDQKVNVPLNIIRKAGETPKINTLQTQPLGTIVNGLFVVQKVTEKKKNILFDLSDNTGKMEVLGVRNEDTMKCKEGDKVRLTFFTLSKNGEKLQLTSGVHSTIKVIKAKKKT

Variants of: B1
Details: with asc_human PYCARD

Variant	effect of a mutation on the interaction
G38E	decreasing interaction strength
R24E	disrupting interaction strength
D15R	disrupting interaction strength
L10A;L11A	disrupting interaction strength
Y74R	disrupting interaction strength
F27G	disrupting interaction strength
K39E	decreasing interaction strength
